Here are results for 1 protein from US20210302442A1 (MAX DELBR CK CENTRUM F R MOLEKULARE MEDIZIN IN DER …, published 2021).

The data set concerns the molecule itself. The data set can be described thus: AFM of spontaneously formed aggregates (self-assembly).

B1: Ex1Q48 (other)
chain: MATLEKLMKAFESLKSFQQQQQQQQQQQQQQQQQQQQQQQQQQQQQQQQQQQQQQQQQQQQQQQQPPPPPPPPPPPQLPQPPPQAQPLLPQLQPPPPPPPPPPGPAAAEEPLHRP
notes: also called HTTEx1Q48; HTTex1Q48
Turning to B1, the binding result was “binds”.
